From patent US20230174641A1 (H LUNDBECK A S, published 2023)
Where a chain is given by its changes, count along the chain named. Ends that are not written are not given here.

T1: human ACTH 1-39 (human)
T1 peptide: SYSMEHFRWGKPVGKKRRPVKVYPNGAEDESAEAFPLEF

T2: human ACTH 18-39 (human)
T2 construct: also called CLIP; CLIP (ACTH 18-39)
T2 peptide: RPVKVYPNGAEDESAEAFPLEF

T3: N-term biotinylated human ACTH 1-39 (human, N-terminal biotin)
T3 construct: also called huACTH 1-39
T3 peptide: T1 peptide

T4: human ACTH 1-13 (human, ends and bridges not checked)
T4 construct: also called human alpha-MSH (ACTH 1-13); alpha-MSH
T4 peptide: SYSMEHFRWGKPV

T5: ACTH 1-24 (human)
T5 peptide: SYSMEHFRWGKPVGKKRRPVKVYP

B1: Ab7 (antibody, human IgG1, kappa, N297A, V domains shown)
VH: QSVEESGGRLVTPGTPLTLTCTVSGFSLSSYAMSWVRQAPGEGLEWIGIISDSGSTYYASWAKGRFTISKTSTTVDLRITSPTTEDTATYFCAREPEYGYDDYGDWVSDLWGQGTLVTVSS
VL: DIVMTQTPASVEAAVGGTVTIKCQASQSISDYLSWYQQKPGQPPKLLIYRASTLASGVPSRFKGSGSGTQFTLTISDLECADAATYYCQSYYYSSSITYRNAFGGGTEVVVKR
notes: rabbit/human chimeric antibody, made in HEK-293
B2: Ab6 (antibody, human IgG1, kappa, N297A, V domains shown)
VH: B1 VH with S29T, S30D, I68F, D102E, Q113P
VL: B1 VL with T18A, S26T, S30G, D31N, Y32N, S34A, Q70E, R100H
notes: as for B1
B3: Ab9 (antibody, human IgG1, kappa, N297A, V domains shown)
VH: B1 VH with S29N, S55R, R78K, Q113P
VL: B1 VL with I2V, D31S
notes: as for B1
B4: Ab2 (antibody, human IgG1, kappa, N297A, V domains shown)
VH: QSVEESGGRLVTPGTPLTLTCTVSGFSLSKYDMIWVRQAPGKGLESIGIIYDDGDTYYASWAKGRFTISQTSTTVDLKIISPTTEDTATYFCVKGVSNIWGQGTLVTVSS
VL: DVVMTQTPASVEAAVGGTVTIKCQASQSISNYLAWYQQKTGQPPKLLIYSASTLASGVPSRFKGSGSGTEFTLTISDLECADAATYYCQSYEGSSSSSYGVGFGGGTEVVVKR
notes: as for B1
B5: Ab10 (antibody, human IgG1, kappa, N297A, V domains shown)
VH: B4 VH with K30S, Y31A, I49M, S60T, Q70K, N98S, I99V
VL: B4 VL with K22N, Q27E, S28N, S30Y, N31R, Y32S, T40P, E92D
notes: as for B1
B6: Ab3 (antibody, human IgG1, kappa, N297A, V domains shown)
VH: QSLEESGGRLVTPGTPLTLTCTVSGSSLSNFDMIWVRQAPGKGLESIGIIYDFGSTYYASWAKGRFTISRTSSTTVDLKIISPTIEDTATYFCVKGVSNIWGQGTLVTVSS
VL: B4 VL with Q27E, S28D, N31S, Y32N, T40L, T74A, E92D, V101I
notes: as for B1
B7: Ab12 (antibody, human IgG1, kappa, N297A, V domains shown)
VH: B4 VH with F26S, K30D, S60T, Q70K, K78R, I99M, Q102P
VL: B4 VL with A9S, E12S, S30G, N31S, Y32S, T40P, P43R, S50A, E92D
notes: as for B1
B8: Ab11 (antibody, human IgG1, kappa, N297A, V domains shown)
VH: QSLEESGGRLVTPGTSLTLTCTASGFSLSAYDILWVRQAPGKGLESIGMMYDDGDTYYATWAKGRFIISRTSTTMDLKIISPTTEDTATYFCVKGVSNIWGQGTLVTVSS
VL: B4 VL with V2I, T7I, S30D, N31S, Y32S, T40P, S76G, E92D, S98Y, V101I
notes: as for B1
B9: Ab4 (antibody, human IgG1, kappa, N297A, V domains shown)
VH: B4 VH with C21Y, Y31H, S60N, Q70K, Q102P
VL: B4 VL with Q24R, N31V, T40A, S50Q, T53K, E92D
notes: as for B1
B10: Ab1 (antibody, human IgG1, kappa, N297A, V domains shown)
VH: B4 VH with E4K, K30N, I49M, Q70K, I99H, Q102P
VL: B4 VL with N31S, T40P, S65R, E92D, S96G
notes: as for B1
B11: Ab2.H (antibody, human IgG1, kappa, N297A, V domains shown)
VH: EVQLVESGGGLVQPGGSLRLSCAASGFTVSKYDMIWVRQAPGKGLESIGIIYDDGDTYYASSAKGRFTISRDNSKNTLYLQMNSLRAEDTAVYYCVKGVSNIWGQGTLVTVSS
VL: DIQMTQSPSTLSASVGDRVTITCQASQSISNYLAWYQQKPGKAPKLLIYSASTLASGVPSRFSGSGSGTEFTLTISSLQPDDFATYYCQSYEGSSSSSYGVGFGGGTKVEIKR
notes: humanized form of Ab2
B12: Ab11A.H (antibody, human IgG1, kappa, N297A, V domains shown)
VH: B11 VH with K31A, M34I, I35L, I50M, I51M, S61T
VL: B11 VL with S30G, N31S, Y32S, S98Y, V101I
B13: Ab12.H (antibody, human IgG1, kappa, N297A, V domains shown)
VH: not shown
VL: B11 VL with S30G, N31S, Y32S, S50A, E92D
notes: humanized form of Ab12
B14: Ab10.H (antibody, human IgG1, kappa, N297A, V domains shown)
VH: B11 VH with K31S, Y32A, I50M, S61T, N101S, I102V
VL: B11 VL with Q27E, S28N, S30Y, N31R, Y32S, E92D
notes: humanized form of Ab10
B15: Ab11.H (antibody, human IgG1, kappa, N297A, V domains shown)
VH: B11 VH with K31A, M34I, I35L, I50M, I51M, S61T
VL: B11 VL with S30D, N31S, Y32S, E92D, S98Y, V101I
notes: humanized form of Ab11
B16: Ab1.H (antibody, human IgG1, kappa, N297A, V domains shown)
VH: B11 VH with K31N, I50M, I102H
VL: B11 VL with N31S, E92D, S96G
notes: humanized form of Ab1
B17: Ab4.H (antibody, human IgG1, kappa, N297A, V domains shown)
VH: B11 VH with Y32H, S61N
VL: B11 VL with Q24R, N31V, S50Q, T53K, E92D
notes: humanized form of Ab4

How the values were obtained:
human ACTH 1-39 [1] = target: T1, human ACTH 1-39; assay: cell-based or functional assay
human ACTH 1-39 [2] = target: T1, human ACTH 1-39; assay: cell-based or functional assay
human ACTH 1-39 [3] = target: T1, human ACTH 1-39; assay: cell-based or functional assay
human ACTH 1-39 [4] = target: T1, human ACTH 1-39; assay: cell-based or functional assay
human ACTH 1-39 [5] = target: T1, human ACTH 1-39; assay: SPR ProteOn, antibody immobilised
Description: (§1) Antibody was immobilized to the surface of general amine coupling (GLC or GLM) Chips (Bio-Rad). […] At the chosen concentrations of antigen (ranging from 454 ng/ml to 5.6 ng/ml) association times of 200 seconds and dissociation times of 30-200 minutes were used with the ProteOnTM Manager Software (v3.1.0.6, Bio-Rad) to group and fit data using a 1:1 Langmuir binding model. Surfaces were regenerated between analyte queries using 10 mM glycine at pH 2.0. Data repeated across a single density was averaged and a single KD and standard propagation of error calculated for each antibody.

human ACTH 18-39 [6] = target: T2, human ACTH 18-39; assay: SPR ProteOn, antibody immobilised
Description: as §1

[7] = target: T3, N-term biotinylated human ACTH 1-39; assay: ELISA, biotin-ACTH 1-39 on neutravidin plate
Description: All incubations were done at room temperature. […] The plates were then blocked using a blocking solution (PBS, 0.5% fish skin gelatin, 0.05% Tween-20) for approximately one hour. The blocking solution was then removed and the plates were then incubated with a dilution series of the antibody being tested for approximately one hour. At the end of this incubation, the plate was washed three times with wash buffer and further incubated with a secondary antibody containing solution (Peroxidase conjugated AffmiPure™ F(ab′)₂ fragment goat anti-human IgG, Fc fragment specific (Jackson Immunoresearch) for approximately 45 minutes and washed three times. Next a substrate solution (TMB peroxidase substrate, BioFx®, SurModics, Eden Prairie, Minn.) was added and incubated for 3 to 5 minutes in the dark. The reaction was stopped by addition of 0.5 M HCl and the plate was read at 450 nm in a plate-reader.

human ACTH 1-13 [8] = target: T4, human ACTH 1-13; assay: SPR ProteOn, antibody immobilised; SPR, antibody on the chip, alpha-MSH alone (Table 6)
Description: as §1

ACTH 1-24 = target: T5, ACTH 1-24; assay: cell-based or functional assay
human ACTH 1-13 [9] = target: T4, human ACTH 1-13; assay: SPR ProteOn, antibody immobilised
Description: as §1

human ACTH 18-39 [10] = target: T2, human ACTH 18-39; assay: SPR ProteOn, antibody immobilised; SPR, antibody on the chip, CLIP alone (Table 5)
Description: as §1

Binder	MC2R IC50 (human ACTH 1-39 [1])	MC1R IC50 (human ACTH 1-39 [2])	MC3R IC50 (human ACTH 1-39 [3])	MC4R IC50 (human ACTH 1-39 [3])	MC5R IC50 (human ACTH 1-39 [3])	Y1 Cells IC50 (human ACTH 1-39 [4])	Kd (human ACTH 1-39 [5])	koff (human ACTH 1-39 [5])	koff (human ACTH 18-39 [6])	EC50 [7]	koff (human ACTH 1-13 [9])	Kd (human ACTH 18-39 [6])	other results
B1	0.09 nM	1.29 nM	64.2 nM	49.7 nM	1100 nM	2.49 nM	0.037 nM	3.7e-05 s⁻¹	> 0.1 s⁻¹	2.24 nM	–	–	kon (human ACTH 1-39 [5]): 1e+06 M⁻¹ s⁻¹; Kd (human ACTH 1-13 [8]): 54 nM; koff (human ACTH 1-13 [8]): 0.013 s⁻¹; kon (human ACTH 1-13 [8]): ~240000 M⁻¹ s⁻¹
B2	0.03 nM	1.04 nM	62.8 nM	55.2 nM	1000 nM	1.44 nM	0.019 nM	1.9e-05 s⁻¹	> 0.1 s⁻¹	2 nM	–	–	IC50 (nM), cAMP in MC2R cells (ACTH 1-24): 0.1 nM; kon (human ACTH 1-39 [5]): 1e+06 M⁻¹ s⁻¹; Kd (human ACTH 1-13 [8]): 16 nM; koff (human ACTH 1-13 [8]): 0.0052 s⁻¹; kon (human ACTH 1-13 [8]): 330000 M⁻¹ s⁻¹
B3	0.12 nM	–	–	–	–	3.47 nM	–	–	> 0.1 s⁻¹	2.05 nM	–	–	Kd (human ACTH 1-13 [8]): 63 nM; koff (human ACTH 1-13 [8]): 0.009 s⁻¹; kon (human ACTH 1-13 [8]): ~140000 M⁻¹ s⁻¹
B4	0.25 nM	3.62 nM	79 nM	54.5 nM	1100 nM	–	–	–	0.026 s⁻¹	0.42 nM	> 0.1 s⁻¹	31 nM	IC50 (nM), cAMP in MC2R cells (ACTH 1-24): 1.3 nM; kon (human ACTH 18-39 [6]): 840000 M⁻¹ s⁻¹
B5	0.16 nM	2.14 nM	133 nM	66.3 nM	5400 nM	5.98 nM	0.11 nM	0.00011 s⁻¹	–	1.57 nM	> 0.1 s⁻¹	–	kon (human ACTH 1-39 [5]): 1e+06 M⁻¹ s⁻¹; Kd (human ACTH 18-39 [10]): 250 nM; koff (human ACTH 18-39 [10]): 0.27 s⁻¹; kon (human ACTH 18-39 [10]): 1.1e+06 M⁻¹ s⁻¹
B6	0.29 nM	4.12 nM	58.7 nM	54.2 nM	1100 nM	7.72 nM	–	–	0.0085 s⁻¹	0.24 nM	> 0.1 s⁻¹	25 nM	IC50 (nM), cAMP in MC2R cells (ACTH 1-24): 0.8 nM; kon (human ACTH 18-39 [6]): 340000 M⁻¹ s⁻¹
B7	0.05 nM	1.66 nM	–	–	–	2.68 nM	–	–	–	0.76 nM	> 0.1 s⁻¹	–	Kd (human ACTH 18-39 [10]): 27 nM; koff (human ACTH 18-39 [10]): 0.024 s⁻¹; kon (human ACTH 18-39 [10]): 890000 M⁻¹ s⁻¹
B8	0.03 nM	1.49 nM	108 nM	49.4 nM	4200 nM	1.53 nM	0.04 nM	4e-05 s⁻¹	–	–	> 0.1 s⁻¹	–	kon (human ACTH 1-39 [5]): 1e+06 M⁻¹ s⁻¹; Kd (human ACTH 18-39 [10]): 54 nM; koff (human ACTH 18-39 [10]): 0.086 s⁻¹; kon (human ACTH 18-39 [10]): 1.6e+06 M⁻¹ s⁻¹
B9	0.46 nM	5.73 nM	113 nM	65.8 nM	1300 nM	17.2 nM	0.27 nM	0.00027 s⁻¹	0.19 s⁻¹	0.39 nM	> 0.1 s⁻¹	270 nM	kon (human ACTH 1-39 [5]): 1e+06 M⁻¹ s⁻¹; kon (human ACTH 18-39 [6]): 710000 M⁻¹ s⁻¹
B10	0.14 nM	2.38 nM	101 nM	56.4 nM	1100 nM	2.36 nM	0.19 nM	0.00019 s⁻¹	0.092 s⁻¹	0.48 nM	> 0.1 s⁻¹	150 nM	kon (human ACTH 18-39 [6]): 620000 M⁻¹ s⁻¹
B11	–	–	–	–	–	–	–	–	–	–	–	28 nM	–
B12	–	–	–	–	–	–	–	–	–	–	–	20 nM	–
B13	–	–	–	–	–	–	–	–	–	–	–	8.8 nM	–
B14	–	–	–	–	–	–	–	–	–	–	–	13 nM	–
B15	–	–	–	–	–	–	–	–	–	–	–	20 nM	–
B16	–	–	–	–	–	–	–	–	–	–	–	20 nM	–
B17	–	–	–	–	–	–	–	–	–	–	–	92 nM	–
